# Assay results from patent publication US20180214548A1 (SHANGHAI YUNYI HEALTHCARE AND TECHNOLOGY, published 2018).
# Where two headings read alike, the source gives them in different places.
# T1: CTLA4 (human, UniProt P16410 37-162, limits assumed)
# T1 sequence (looked up): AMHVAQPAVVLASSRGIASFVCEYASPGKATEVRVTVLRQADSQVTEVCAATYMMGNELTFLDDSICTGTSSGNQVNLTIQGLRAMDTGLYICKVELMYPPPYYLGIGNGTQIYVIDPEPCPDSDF
# T2: ICOS (human, UniProt Q9Y6W8 21-140, limits assumed)
# T2 sequence (looked up): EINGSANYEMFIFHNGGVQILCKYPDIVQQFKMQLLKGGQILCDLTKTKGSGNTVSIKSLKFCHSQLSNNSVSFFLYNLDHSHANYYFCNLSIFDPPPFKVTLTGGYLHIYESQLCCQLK
# T3: B7.1 (human, UniProt P33681 35-242)
# T3 sequence (looked up): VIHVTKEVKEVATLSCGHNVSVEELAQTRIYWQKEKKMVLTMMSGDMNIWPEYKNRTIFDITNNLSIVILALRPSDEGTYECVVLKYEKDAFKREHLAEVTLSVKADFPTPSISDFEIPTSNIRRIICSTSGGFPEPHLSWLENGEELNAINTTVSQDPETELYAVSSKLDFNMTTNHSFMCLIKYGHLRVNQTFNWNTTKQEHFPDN
# T4: CTLA4 (human, UniProt P16410 37-162, limits assumed)
# T4 sequence (looked up): T1 sequence (looked up)
# T5: B7-1 (human, UniProt P33681 35-242)
# T5 sequence (looked up): T3 sequence (looked up)
# T6: ICOS (human, UniProt Q9Y6W8 21-140, limits assumed)
# T6 sequence (looked up): T2 sequence (looked up)
# B1: fully human anti-PD-1 antibody 76G5B3 (antibody, human IgG4 S228P, kappa, V domains shown)
# VH: QVQLVESGGGVVQPGRSLRLSCAASGFTFSDYGFHWVRQAPGKGLEWVAVIWYDGSNEYYTDSVKGRFTISRDNSKNTLYLQMNSLRAEDTAMYFCVVNPFDYWGQGTLVTVSS
# VL: DIQMTQSPSSLSAFVGDRVTITCRASQGINHYLAWYQQKPGKAPNLLILAASTLLSGVPSRFGGRGSGTDFTLIISSLQPEDVATYYCQKYDSAPYTFGQGTKLEIKR
# B2: fully human anti-PD-1 antibody 76G5B3 (antibody, human IgG4 S228P, kappa, V domains shown)
# VH: B1 VH
# VL: B1 VL
# notes: also called 76G5B3 (fully human, IgG4 S228P / kappa)
# B3: fully human anti-PD-1 antibody 21G8F11 (antibody, human IgG4 S228P, kappa, V domains shown)
# VH: EVQLLESGGGLAQPGGSLRLSCAASGFSFNTYLMHWVRQAPGKGLEWVSAISGGGGNTYYADSVKGRFTISRDNSKNTLYLQMNSLRAEDTAVYYCAKENRIPVAPFDYWGQGTLVTVSS
# VL: DIQMTQSPSTLSASVGDRVTITCRASQSISTWLAWYQQKPGKAPKLLIYKASSLESGVPSRFSGSGSGTEFTLTISSLQPDDLATYYCQQYNSFSWTFGQGTKVEIKR
# notes: also called 21G8F11 (fully human, IgG4 S228P / kappa)
# B4: fully human anti-PD-1 antibody 21G8F11 (antibody, human IgG4 S228P, kappa, V domains shown)
# VH: B3 VH
# VL: B3 VL
# B5: fully human anti-PD-1 antibody 223G6B5 (antibody, human IgG4, V domains shown)
# VH: QVQLQESGPGLVKPSETLSLTCAVSGHSIRGSYFWGWIRQPPGRGLEWIGSIYHSGSTYTNPSLKSRATISVDTSKNQFSLKLNSVTAADTAVYYCARDLDIATTRDYWGQGTLVTVSS
# VL: DIQLTQSPSFLSASVGDRVTIICRASQGINNYLAWYQQKPGKAPKLLIYAASTLQSGVPSRFSGSGSGTEFTLTISSLQPEDFATYYCQQLDSYPRTFGQGTKVEIKR
# notes: also called 223G6B5 (fully human, IgG4 S228P / kappa)
# How the values were obtained:
# CTLA4 [1] = molecular target: T1, CTLA4; test: ELISA, coated protein, antibody concentration not given
# ICOS [2] = molecular target: T2, ICOS; test: as above
# NC-Fc = molecular target: T7, NC-Fc; test: as above
# T7 construct: seemingly a negative control Fc protein
# B7.1 = molecular target: T3, B7.1; test: as above
# [3] = molecular target: T8, human PD-1^ECD-hFc protein (Immunogen A) (human, UniProt Q15116 25-167); test: as above
# T8 construct: also called PD-1-hFc; hPD-1^ECD-hFc; not shown: human IgG Fc fragment (hFc)
# T8 sequence (Q15116 25-167): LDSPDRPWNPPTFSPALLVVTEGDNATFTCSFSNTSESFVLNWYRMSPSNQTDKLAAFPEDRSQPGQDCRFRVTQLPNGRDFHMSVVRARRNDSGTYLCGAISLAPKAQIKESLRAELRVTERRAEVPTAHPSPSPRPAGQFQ
# CD28 [4] = molecular target: CD28 (human, UniProt P10747 19-152); test: as above
# Target sequence in this assay (P10747 19-152 limits assumed): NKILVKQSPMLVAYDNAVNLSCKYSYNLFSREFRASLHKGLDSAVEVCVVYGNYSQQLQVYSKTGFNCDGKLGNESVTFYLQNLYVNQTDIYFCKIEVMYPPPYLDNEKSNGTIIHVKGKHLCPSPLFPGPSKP
# [5] = molecular target: T9, His-tagged human PD-1 ECD protein (human, UniProt Q15116 25-167); test: SPR Biacore T200, antibody captured by anti-human Fc, His-tagged hPD-1 ECD as analyte
# T9 construct: also called His-tagged hPD-1 ECD; His-tagged PD-1^ECD; not shown: His tag
# Protocol: Anti-human Fc IgG was immobilized on flow cells 1 and 2: HBS-EP+(10 mM HEPES, 150 mM NaCl, 3 mM EDTA, 0.05% P20, pH 7.4) was used as running buffer, and the immobilization of anti-human Fc IgG was carried out using the immobilization wizard template. Flow cells 1 and 2 of a Series S CM5 sensor chip were activated with freshly-mixed 50 mmol/L NHS and 200 mmol/L EDC. 20 ug/mL of anti-human Fc IgG diluted in 10 mM NaAC (pH 4.5) was injected into the activated flow cells 1 and 2. The remaining active coupling sites were blocked with 1M ethanolamine.
# Recombinant His-tagged hPD-1 ECD protein was diluted to 50 nM, followed by four 2-fold serial dilutions with HBS-EP+ buffer. […] KD measurements were carried out with HBS-EP+ as the running buffer. Each antibody was injected over the CM5 sensor flow cell 2 with a flow rate of 10 uL/min to reach response 230 RU. Prepared His-tagged hPD-1 ECD protein was then injected over flow cells 1 and 2, at a flow rate of 30 uL/min for 180 sec. Buffer flow was maintained for 400 seconds for dissociation measurements (30 uL/min). To remove the tested antibody from the surface, 10 mM glycine-HCl pH 1.5 was injected for 20 seconds (30 uL/min). Flow cell 1 was used as reference flow cell. The above steps were repeated for each concentration of serially-diluted His-tagged PD-1^ECD protein. The KD value for each antibody was evaluated using Biacore T200 evaluation software 1.0, and the data was fit with a 1:1 binding model.
# [6] = molecular target: T10, cyno monkey PD-1^ECD-hFc protein (cyno monkey, UniProt B0LAJ3 25-167); test: ELISA, coated cyno PD-1ECD-hFc
# T10 construct: also called cyno PD-1^ECD-hFc; not shown: human IgG Fc fragment (hFc) and its junction to the ECD
# [7] = molecular target: T8, human PD-1^ECD-hFc protein (Immunogen A); test: ELISA, coated human PD-1ECD-hFc
# [8] = molecular target: T11, human PD-1, full length, on cells (human, UniProt Q15116 25-288); test: flow cytometry on activated human PBMCs (MFI)
# T11 construct: whole, on cells; in the lymphocyte assays the natural PD-1 of human T cells/PBMCs; also called hPD-1; CHO-K1-hPD-1
# [9] = molecular target: T11, human PD-1, full length, on cells; test: flow cytometry on CHO-K1-hPD-1 cells
# [10] = molecular target: T12, full length human PD-1 on cells (human, UniProt Q15116 25-288); test: cell-based receptor ligand blocking assay (fully human antibodies), blocked ligand PD-L1
# T12 construct: Also used here for PD-1 on human T cells/PBMC; also called CHO-K1-hPD-1; hPD-1
# [11] = molecular target: T13, human PD-1^ECD-hFc protein (Immunogen A) (human, UniProt Q15116 25-167); test: protein-based receptor ligand blocking assay (fully human antibodies), blocked ligand PD-L1
# T13 construct: Biotinylated for the Octet assay; also called PD-1-hFc; hPD-1^ECD-hFc; not shown: human IgG Fc fragment (hFc)
# Protocol: Purified PD-1^ECD-hFc (Example 2) was diluted with PBS to a final concentration of 1.0 ug/mL, and 100 uL diluted PD-1^ECD-hFc were added to each well of a 96-well plate that was then sealed with plastic film and incubated at 4° C. overnight. The plate was washed twice with wash buffer (PBS+0.01% (v/v) Tween 20) and incubated with blocking buffer (PBS+[…]) at room temperature for 2 hours. The blocking buffer was aspirated, and 50 uL purified anti-PD-1 antibodies from Example 2 were added to each well of 96-well plate. […] The plate was washed three times with wash buffer (PBS+0.01% (v/v) Tween 20). 100 uL HRP-conjugated streptavidin (Sigma) were then added to each well and incubated at 37° C. for 2 hours. The plate was then washed three times with wash buffer, and 100 uL TMB substrate were added to each well. After 30 minutes of incubation at room temperature, the reaction was stopped by adding 100 uL stop solution (0.1N HCl). The absorbance at OD450 nm was measured with an ELISA plate reader (384plus SpectraMax, Molecular Devices).
# T13 sequence (Q15116 25-167): as the sequence (Q15116 25-167) above
# CTLA4 [12] = molecular target: T4, CTLA4; test: ELISA on coated protein (Table 22)
# CD28 [13] = molecular target: CD28 (human, UniProt P10747 19-152); test: ELISA on coated protein (Table 22)
# Target sequence in this assay (P10747 19-152 limits assumed): as the sequence (P10747 19-152 limits assumed) above
# B7-1 = molecular target: T5, B7-1; test: ELISA on coated protein (Table 22)
# ICOS [14] = molecular target: T6, ICOS; test: ELISA on coated protein (Table 22)
# [15] = molecular target: T13, human PD-1^ECD-hFc protein (Immunogen A); test: protein-based receptor ligand blocking assay (fully human antibodies), blocked ligand PD-L2
# [16] = molecular target: T13, human PD-1^ECD-hFc protein (Immunogen A); test: as above; remark: listed apart in the source
# [17] = molecular target: T12, full length human PD-1 on cells; test: cell-based receptor ligand blocking assay (fully human antibodies), blocked ligand PD-L1; remark: listed apart in the source
# T10 sequence (B0LAJ3 entry or part of it limits assumed): as the sequence (Q15116 25-167) above, with D2E, P10A, V19L, T35A, Q75R counted along it
# T9 sequence (Q15116 25-167): as the sequence (Q15116 25-167) above
# T11 sequence (Q15116 25-288): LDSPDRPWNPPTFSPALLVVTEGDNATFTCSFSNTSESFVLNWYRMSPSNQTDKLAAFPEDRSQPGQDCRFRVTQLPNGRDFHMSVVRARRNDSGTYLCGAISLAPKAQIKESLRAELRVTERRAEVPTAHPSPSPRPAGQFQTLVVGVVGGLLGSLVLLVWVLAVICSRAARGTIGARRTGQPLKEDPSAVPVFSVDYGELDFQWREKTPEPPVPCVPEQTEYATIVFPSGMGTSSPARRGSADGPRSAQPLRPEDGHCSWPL
# T12 sequence (Q15116 25-288 limits assumed): as the sequence (Q15116 25-288) above
Binder,OD450 nm (CTLA4 [1]) [OD450],OD450 nm (ICOS [2]) [OD450],OD450 nm (NC-Fc) [OD450],OD450 nm (B7.1) [OD450],OD450 nm [3] [OD450],OD450 nm (CD28 [4]) [OD450],OD450 nm at 0 nM [6] [OD450],OD450 nm at 0.0001 nM [6] [OD450],OD450 nm at 0.001 nM [6] [OD450],OD450 nm at 0.01 nM [6] [OD450],OD450 nm at 0.1 nM [6] [OD450],OD450 nm at 1 nM [6] [OD450],OD450 nm at 10 nM [6] [OD450],OD450 nm at 100 nM [6] [OD450],OD450 nm at 0 nM [7] [OD450],OD450 nm at 0.0001 nM [7] [OD450],OD450 nm at 0.001 nM [7] [OD450],binding result (CTLA4 [12]),binding result (B7-1),binding result (ICOS [14]),other results
B1,0.32,0.38,0.41,0.37,3.01,0.1,0.06,0.06,0.08,0.2,1.06,2.32,2.41,2.45,0.09,0.1,0.12,–,–,–,Kd [5]: 0.936 nM; koff [5]: 9.35e-05 s⁻¹; kon [5]: 100000 M⁻¹ s⁻¹; OD450 nm at 0.01 nM [7]: 0.28 OD450; OD450 nm at 0.1 nM [7]: 1.34 OD450; OD450 nm at 1 nM [7]: 2.47 OD450; OD450 nm at 10 nM [7]: 2.44 OD450; OD450 nm at 100 nM [7]: 2.58 OD450; EC50 (read off the curve) [8]: ~0.2 nM; MFI at 0 nM [9]: 4.1 MFI; MFI at 0.01 nM [9]: 22.9 MFI
B2,–,–,–,–,–,–,–,–,–,–,–,–,–,–,–,–,–,no binding,no binding,no binding,IC50 (read off the curve) [10]: ~0.3 µg/mL; IC50 (read off the curve) [11]: ~2 nM; binding result (CD28 [13]): no binding; IC50 (read off the curve) [15]: ~8 nM
B3,–,–,–,–,–,–,–,–,–,–,–,–,–,–,–,–,–,no binding,no binding,no binding,IC50 (read off the curve) [16]: ~1 nM; IC50 (read off the curve) [11]: ~1 nM; IC50 (read off the curve) [17]: ~5 nM
B4,0.09,0.16,0.21,0.25,2.7,0.27,0.19,0.15,0.22,0.51,2.39,2.99,3.02,3,0.18,0.16,0.26,–,–,–,OD450 nm at 0.01 nM [7]: 0.58 OD450; OD450 nm at 0.1 nM [7]: 2.62 OD450; OD450 nm at 1 nM [7]: 3.03 OD450; OD450 nm at 10 nM [7]: 3.02 OD450; OD450 nm at 100 nM [7]: 3.03 OD450; MFI at 0 nM [9]: 48.8 MFI; MFI at 0.01 nM [9]: 1020 MFI
B5,–,–,–,–,–,–,–,–,–,–,–,–,–,–,–,–,–,no binding,no binding,no binding,binding result (CD28 [13]): no binding
